In article PMC8626477:

Columns and labels:
[1] = molecular target: E2 of the Chaetomium thermophilum pyruvate dehydrogenase complex (PDHc) (Chaetomium thermophilum); assay: cryo-EM structure; native C. thermophilum cell extract, SEC fraction 6, vitrified at 0.3 mg/mL total protein; 10249 particles; reconstructions with icosahedral (3.85 Å), C2 (6.21 Å) and C1 (7.62 Å) symmetry
[2] = molecular target: E3BP of the Chaetomium thermophilum pyruvate dehydrogenase complex (PDHc) (Chaetomium thermophilum); assay: as above

stoichiometry N [1] | stoichiometry N [2] | Substance
60 | – | E2 of the Chaetomium thermophilum pyruvate dehydrogenase complex (PDHc) (enzyme)
12 | 3 | E3BP of the Chaetomium thermophilum pyruvate dehydrogenase complex (PDHc) (natural protein)
